Assay [1] addresses Antibody 178-09_His B.1.1.7 (27080) (SARS-CoV-2), P0DTC2. In words: SPR (Carterra). Particulars: remark: other sources report otherwise.
Assay [2] addresses Delta spike trimer (SARS-CoV-2), P0DTC2. Conditions: remark: other sources report otherwise.

B1: 3-31 (Fc fusion)
chain: EVQLVESGGGLVQPGGSLRLSCAASGSTFSINAMGWFRQAPGKEREFVAGITSSGGYTNYADSVKGRFTISADNSKNTAYLQMNSLKPEDTAVYYCAADGVPEYSDYASGPVWGQGTLVTVSS
B1 returned a Kd in assay [1] of 16.1 nM. The molecule further showed a half-inhibitory concentration (IC50) in assay [2] of 3 nM.

As a reminder, the Kd is the constant that tells how readily two partners part at equilibrium. Usually IC50 stands for the midpoint of a concentration-inhibition curve. Read a high IC50 as weaker potency in that assay.

(Values after patent US20230192818A1.)
